Experimental data taken from paper PMC3212559, “Large-Scale Protein-Protein Interaction Analysis in Arabidopsis Mesophyll Protoplasts by Split Firefly Luciferase Complementation” (PLoS ONE, 2011).

Experiments:
Test in all cases: split reporter (BiFC, NanoBiT); SFLC in living Arabidopsis mesophyll protoplasts: Aux/IAA-FLucN or MYB30-FLucN co-expressed with ARFCTD-FLucC or Aux/IAA-FLucC for 6 hr; 10 µg of each construct, 2×10^4 cells, 96-well plate, D-luciferin; relative activity standardised against ARF5CTD-FLucC + IAA28-FLucN
Conditions in all cases: partners not purified
[1] = target: T1, ARF12 C-terminal domain (CTD)-FLucC (Arabidopsis, UniProt Q9XID4 511-593)
T1 construct: Arabidopsis auxin response factor 12, C-terminal dimerization domain (CTD); In the ARF-ARF tests the same CTD stood both as ARFCTD-FLucC and as ARFCTD-FLucN; one molecule for both; also called ARF12CTD-FLucC; ARFCTD-FLucC; source: Arabidopsis mesophyll protoplasts, transfected, in living cells; not shown: FLucC (firefly luciferase aa 394-550)
T1 sequence (looked up): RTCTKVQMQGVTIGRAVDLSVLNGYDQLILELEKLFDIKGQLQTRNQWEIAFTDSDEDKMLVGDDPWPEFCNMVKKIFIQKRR

[2] = target: T2, ARF18 C-terminal domain (CTD)-FLucC (Arabidopsis, UniProt Q9C5W9 489-602)
T2 construct: Arabidopsis auxin response factor 18, C-terminal dimerization domain (CTD); In the ARF-ARF tests the same CTD stood both as ARFCTD-FLucC and as ARFCTD-FLucN; one molecule for both; also called ARF18CTD-FLucC; ARFCTD-FLucC; source: Arabidopsis mesophyll protoplasts, transfected, in living cells; not shown: FLucC (firefly luciferase aa 394-550)
T2 sequence (looked up): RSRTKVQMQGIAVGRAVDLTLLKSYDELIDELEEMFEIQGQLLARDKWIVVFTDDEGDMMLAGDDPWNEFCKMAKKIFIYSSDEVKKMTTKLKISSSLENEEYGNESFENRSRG

[3] = target: T3, IAA3-FLucC (Arabidopsis, UniProt Q38822 1-189)
T3 construct: Arabidopsis Aux/IAA protein IAA3; also called Aux/IAA-FLucC; source: Arabidopsis mesophyll protoplasts, transfected, in living cells; not shown: FLucC (firefly luciferase aa 394-550)
T3 sequence (looked up): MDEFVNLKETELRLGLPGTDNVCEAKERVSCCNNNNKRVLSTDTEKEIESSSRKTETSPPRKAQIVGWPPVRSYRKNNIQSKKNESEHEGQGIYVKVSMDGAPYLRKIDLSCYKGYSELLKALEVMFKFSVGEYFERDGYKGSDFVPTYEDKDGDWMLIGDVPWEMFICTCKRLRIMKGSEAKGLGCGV

[4] = target: T4, IAA19-FLucC (Arabidopsis, UniProt O24409 1-197)
T4 construct: Arabidopsis Aux/IAA protein IAA19; also called Aux/IAA-FLucC; source: Arabidopsis mesophyll protoplasts, transfected, in living cells; not shown: FLucC (firefly luciferase aa 394-550)
T4 sequence (looked up): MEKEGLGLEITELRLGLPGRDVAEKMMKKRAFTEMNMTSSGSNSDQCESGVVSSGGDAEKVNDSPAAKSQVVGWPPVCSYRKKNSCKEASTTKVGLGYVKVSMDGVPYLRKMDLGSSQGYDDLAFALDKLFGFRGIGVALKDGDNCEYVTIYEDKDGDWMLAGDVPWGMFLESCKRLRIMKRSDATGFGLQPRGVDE

[5] = target: T5, ARF4 C-terminal domain (CTD)-FLucC (Arabidopsis, UniProt Q9ZTX9 665-788)
T5 construct: Arabidopsis auxin response factor 4, C-terminal dimerization domain (CTD); In the ARF-ARF tests the same CTD stood both as ARFCTD-FLucC and as ARFCTD-FLucN; one molecule for both; also called ARF4CTD-FLucC; ARFCTD-FLucC; source: Arabidopsis mesophyll protoplasts, transfected, in living cells (SFLC) and in lysate (co-IP); not shown: FLucC (firefly luciferase aa 394-550)
T5 sequence (looked up): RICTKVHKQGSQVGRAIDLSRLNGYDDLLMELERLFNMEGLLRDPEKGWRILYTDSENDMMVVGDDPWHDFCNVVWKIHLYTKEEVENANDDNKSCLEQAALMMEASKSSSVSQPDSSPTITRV

Measured: relative luciferase activity (standardised against ARF5CTD-FLucC + IAA28-FLucN)

B1: MYB30-FLucN (natural protein, UniProt Q9SCU7 1-323, looked up)
chain: MVRPPCCDKGGVKKGPWTPEEDIILVTYIQEHGPGNWRAVPTNTGLLRCSKSCRLRWTNYLRPGIKRGNFTEHEEKMIVHLQALLGNRWAAIASYLPQRTDNDIKNYWNTHLKKKLNKVNQDSHQELDRSSLSSSPSSSSANSNSNISRGQWERRLQTDIHLAKKALSEALSPAVAPIITSTVTTTSSSAESRRSTSSASGFLRTQETSTTYASSTENIAKLLKGWVKNSPKTQNSADQIASTEVKEVIKSDDGKECAGAFQSFSEFDHSYQQAGVSPDHETKPDITGCCSNQSQWSLFEKWLFEDSGGQIGDILLDENTNFF
notes: transcription factor MYB30, the unrelated protein used as negative control; source: Arabidopsis mesophyll protoplasts, transfected, in living cells; not shown: FLucN (firefly luciferase aa 1-398)
< 0.1: [1] | [2] | [3] | [4] | [5]
